Assay results from article PMC12126490, “The HP1 box of KAP1 organizes HP1α for silencing of endogenous retroviral elements in embryonic stem cells” (Nature Communications, 2025).

Experiments:
[1] = tested on: endogenous retroelements in KAP1 cKO ESCs; experiment: ATAC-seq chromatin accessibility; format: cell-based, mouse; conditions: exogenous expression in KAP1 cKO ESCs, 2 μg/mL doxycycline, 2 μM 4-OHT 48 h
Description: ESCs were maintained under standard conditions on gelatin-coated plates at 37 °C at 5% CO2 in Knockout DMEM (Thermo Fisher) supplemented with NEAA, GlutaMAX, penicillin/streptomycin (Thermo Fisher), 15% ESC-screened fetal bovine serum (Hyclone), 0.1 mM 2-mercaptoethanol (Fisher), and leukemia-inhibitory factor (LIF). Generation of KAP1 cKO ESCs has been described previously. The piggybac transposon system was used to stably integrate transgenic Flag-tagged WT or V488E mutant KAP1 under control of an rtTA promoter (Systems Biosciences, PB-TRE-EGFP-EF1a-rtTA) into the inducible KAP1 cKO ESCs. Exogenous expression of WT or V488E mutant KAP1 was induced with 2 μg/mL doxycycline for 48 h and maintained in doxycycline prior to endogenous KAP1 deletion. KAP1 deletion was induced with 2 μM 4-OHT (Sigma) treatment for 48 h. […]
The modified ATAC-sequencing protocol Omni-ATAC was performed. […] Number of further PCR cycles required was determined using KAPA Library Quantification Kit (KK4854). […]
Quality of datasets was assessed using the FastQC tool. Raw reads were adapter and quality trimmed using Trimgalore. Trimmed reads were aligned to the mouse reference genome (mm10) with Bowtie2. Multimapping reads were randomly assigned. Optical duplicate reads were filtered using Picard (https://broadinstitute.github.io/picard/). Reads which mapped to the mitochondrial genome were removed with Samtools. […]

FL HP1α = experiment: mass photometry, mixture of FL HP1α and FL KAP1 (Fig. 6g)
Description: For MP assays shown in Fig. 6g–I and Supplementary Fig. 12, FL KAP1 and FL HP1α were expressed and purified as described[38],[67]. MP measurements were performed on a Refeyn OneMP instrument (Refeyn Ltd). The calibration was done with a native marker protein standard mix (NativeMark Unstained Protein Standard, Thermo Scientific), which contains proteins ranging from 20 to 1200 kDa. Coverslips (24 × 50 mm, No. 1.5H, Marienfeld) were cleaned by sequential sonication in Milli-Q water, isopropanol and Milli-Q-water, followed by drying with nitrogen. For each acquisition 2 μL of protein solution was applied to 18 μL of buffer (10 mM HEPES pH 7.5, 150 mM NaCl) in a gasket (CultureWellTM Reusable Gasket, Grace Bio-Labs) on a coverslip. To capture the movie, 400 nM HP1α was diluted 10× and 200 nM KAP1 was diluted 10× for a final concentration of 40 nM and 20 nM, respectively. The final molar ratios of HP1α:KAP1 were 1:0, 1:1 and 2:1. Movies were recorded at 999 Hz with an exposure time of 0.95 ms by using the AcquireMP software (Refeyn Ltd). All mass photometry movies were processed and analysed in the DiscoverMP software (Refeyn Ltd).

B1: FL KAP1: full-length KAP1 (KRAB-associated protein 1, TRIM28, TIF1β) (protein)
chain: MAASAAAASAAAASAASGSPGPGEGSAGGEKRSTAPSAAASASASAAASSPAGGGAEALELLEHCGVCRERLRPEREPRLLPCLHSACSACLGPAAPAAANSSGDGGAAGDGTVVDCPVCKQQCFSKDIVENYFMRDSGSKAATDAQDANQCCTSCEDNAPATSYCVECSEPLCETCVEAHQRVKYTKDHTVRSTGPAKSRDGERTVYCNVHKHEPLVLFCESCDTLTCRDCQLNAHKDHQYQFLEDAVRNQRKLLASLVKRLGDKHATLQKSTKEVRSSIRQVSDVQKRVQVDVKMAILQIMKELNKRGRVLVNDAQKVTEGQQERLERQHWTMTKIQKHQEHILRFASWALESDNNTALLLSKKLIYFQLHRALKMIVDPVEPHGEMKFQWDLNAWTKSAEAFGKIVAERPGTNSTGPAPMAPPRAPGPLSKQGSGSSQPMEVQEGYGFGSGDDPYSSAEPHVSGVKRSRSGEGEVSGLMRKVPRVSLERLDLDLTADSQPPVFKVFPGSTTEDYNLIVIERGAAAAATGQPGTAPAGTPGAPPLAGMAIVKEEETEAAIGAPPTATEGPETKPVLMALAEGPGAEGPRLASPSGSTSSGLEVVAPEGTSAPGGGPGTLDDSATICRVCQKPGDLVMCNQCEFCFHLDCHLPALQDVPGEEWSCSLCHVLPDLKEEDGSLSLDGADSTGVVAKLSPANQRKCERVLLALFCHEPCRPLHQLATDSTFSLDQPGGTLDLTLIRARLQEKLSPPYSSPQEFAQDVGRMFKQFNKLTEDKADVQSIIGLQRFFETRMNEAFGDTKFSAVLVEPPPMSLPGAGLSSQELSGGPGDGP
[1]
  restoration of closed chromatin at IAPEz, MERVK10C and ETn: able to partially restore closed chromatin at IAPEz, MERVK10C and ETn elements
FL HP1α
  effect on oligomerization of HP1α: Oligomerization of HP1α was further increased
